Laboratory results: patent publication US20220177587A1, “METHODS AND USES OF VARIANT CD80 FUSION PROTEINS AND RELATED CONSTRUCTS” (Alpine Immune Sciences, Inc., priority 2018, published 2022)

Key:
CD28 (human) [1] = target: CD28 (human) (UniProt P10747)
PD-L1 (human) [2] = target: PD-L1 (human) (UniProt Q9NZQ7)
Target sequence in this assay (Q9NZQ7 19-290 limits assumed): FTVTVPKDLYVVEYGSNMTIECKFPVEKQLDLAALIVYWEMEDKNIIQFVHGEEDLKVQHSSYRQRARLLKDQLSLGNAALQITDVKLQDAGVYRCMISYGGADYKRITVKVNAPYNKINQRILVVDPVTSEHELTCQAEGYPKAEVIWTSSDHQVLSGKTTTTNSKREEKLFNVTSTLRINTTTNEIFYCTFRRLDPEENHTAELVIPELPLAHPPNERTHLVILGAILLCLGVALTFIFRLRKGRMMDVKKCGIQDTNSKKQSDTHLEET

CD28 (human) [3] = target: CD28 (human) (UniProt P10747); experiment: flow cytometry, Jurkat cells (CD28)
human CTLA-4 (human) [4] = target: human CTLA-4 (human) (UniProt P16410); experiment: flow cytometry, CHO cells stably expressing CTLA4
Chain of human CTLA-4 (human) (P16410 36-223): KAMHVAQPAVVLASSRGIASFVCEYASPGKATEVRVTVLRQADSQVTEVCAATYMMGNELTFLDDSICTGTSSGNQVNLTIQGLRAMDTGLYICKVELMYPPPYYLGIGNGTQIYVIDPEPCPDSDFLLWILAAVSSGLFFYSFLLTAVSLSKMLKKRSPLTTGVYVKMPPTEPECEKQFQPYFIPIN

PD-L1 (human) [5] = target: PD-L1 (human) (UniProt Q9NZQ7); experiment: flow cytometry, CHO cells stably expressing PD-L1
Target sequence in this assay (Q9NZQ7 19-290): as the sequence (Q9NZQ7 19-290 limits assumed) above

PD-L1 (human) [6] = target: PD-L1 (human) (UniProt Q9NZQ7); experiment: flow cytometry, MFI on PD-L1 cells over MFI on CD28 cells
Target sequence in this assay (Q9NZQ7 19-290): as the sequence (Q9NZQ7 19-290 limits assumed) above

human CTLA-4 (human) [7] = target: human CTLA-4 (human) (UniProt P16410); experiment: flow cytometry, CHO cells expressing huCTLA4
CD28 (human) [8] = target: CD28 (human) (UniProt P10747); experiment: flow cytometry, Jurkat/IL2 reporter cells (endogenous CD28)
CD28 (human) [9] = target: CD28 (human) (UniProt P10747); remark: listed apart in the source
PD-L1 (human) [10] = target: PD-L1 (human) (UniProt Q9NZQ7); remark: listed apart in the source
Target sequence in this assay (Q9NZQ7 19-290): as the sequence (Q9NZQ7 19-290 limits assumed) above

CD28 (human) [11] = target: CD28 (human) (UniProt P10747); remark: listed apart in the source
PD-L1 (human) [12] = target: PD-L1 (human) (UniProt Q9NZQ7); remark: listed apart in the source
Target sequence in this assay (Q9NZQ7 19-290): as the sequence (Q9NZQ7 19-290 limits assumed) above

CD28 (human) [13] = target: CD28 (human) (UniProt P10747); remark: listed apart in the source
PD-L1 (human) [14] = target: PD-L1 (human) (UniProt Q9NZQ7); remark: listed apart in the source
Target sequence in this assay (Q9NZQ7 19-290): as the sequence (Q9NZQ7 19-290 limits assumed) above

| Substance | IL-2 luciferase reporter, fold increase over WT CD80-IgV-Fc at 5.0 nM (CD28 (human) [1]) | IL-2 luciferase reporter, fold increase over WT CD80-IgV-Fc at 5.0 nM (PD-L1 (human) [2]) | Fold change to WT CD80 (CD28 (human) [3]) | MFI at 33.3 nM (CD28 (human) [3]) | Fold change to WT CD80 (human CTLA-4 (human) [4]) | MFI at 33.3 nM (human CTLA-4 (human) [4]) | Fold change to WT CD80 (PD-L1 (human) [5]) | MFI at 33.3 nM (PD-L1 (human) [5]) | Ratio of PDL1:CD28 (PD-L1 (human) [6]) | Jurkat/IL2 reporter RLU at 50 nM, CHO/OKT3 aAPC without PD-L1 (CD28 (human) [9]) | also measured |
| --- | --- | --- | --- | --- | --- | --- | --- | --- | --- | --- | --- |
| variant CD80 IgV-Fc H18Y/A26E/E35D/M47L/A71G (Fc fusion) | 2.42 fold | 2.42 fold | 8.6 fold | 379 MFI | 14.2 fold | 19400 MFI | 387 fold | 16900 MFI | 44.6 | – | – |
| variant CD80 IgV-Fc Q33R/E35D/D46E/M47I (Fc fusion) | – | – | – | – | – | – | – | – | – | – | MFI at 33.3 nM (human CTLA-4 (human) [7]): 3560 MFI; MFI at 33.3 nM (CD28 (human) [8]): 303 MFI |
| CD80 A26E/E35D/M47L/L85Q IgV-Fc (inert) (Fc fusion) | – | – | – | – | – | – | – | – | – | 432 RLU | Jurkat/IL2 reporter RLU at 50 nM, CHO/OKT3/PD-L1 aAPC (CD28 (human) [9]): 2000 RLU; Jurkat/IL2 reporter RLU at 50 nM, CHO/OKT3/PD-L1 aAPC (PD-L1 (human) [10]): 2000 RLU; IL-2 release, primary T cells + K562/OKT3/PD-L1, 100 nM (CD28 (human) [11]): 1460; IL-2 release, primary T cells + K562/OKT3/PD-L1, 100 nM (PD-L1 (human) [12]): 1460 |
| CD80 E35D/D46V/L85Q IgV-Fc (inert) (Fc fusion) | – | – | – | – | – | – | – | – | – | 720 RLU | IL-2 release, primary T cells + K562/OKT3/PD-L1, 100 nM (CD28 (human) [11]): 1430; IL-2 release, primary T cells + K562/OKT3/PD-L1, 100 nM (PD-L1 (human) [12]): 1430 |
| CD80 E35D IgV-Fc (inert) (Fc fusion) | – | – | – | – | – | – | – | – | – | 448 RLU | Jurkat/IL2 reporter RLU at 50 nM, CHO/OKT3/PD-L1 aAPC (CD28 (human) [9]): 1610 RLU; Jurkat/IL2 reporter RLU at 50 nM, CHO/OKT3/PD-L1 aAPC (PD-L1 (human) [10]): 1610 RLU; IL-2 release, primary T cells + K562/OKT3/PD-L1, 100 nM (CD28 (human) [11]): 2740; IL-2 release, primary T cells + K562/OKT3/PD-L1, 100 nM (PD-L1 (human) [12]): 2740 |
| CD80 A71D/L72V/E95K IgV-Fc (inert) (Fc fusion) | – | – | – | – | – | – | – | – | – | 644 RLU | Jurkat/IL2 reporter RLU at 50 nM, CHO/OKT3/PD-L1 aAPC (CD28 (human) [9]): 755 RLU; Jurkat/IL2 reporter RLU at 50 nM, CHO/OKT3/PD-L1 aAPC (PD-L1 (human) [10]): 755 RLU |
| variant CD80 IgV-Fc A26E/E35D/M43I/M47L/L85Q/K86E/R94W (Fc fusion) | – | – | – | – | – | – | – | – | – | – | MFI at 33.3 nM (human CTLA-4 (human) [7]): 2950 MFI; MFI at 33.3 nM (CD28 (human) [8]): 314 MFI |
| CD80 E23G/A26S/E35D/T62N/A71D/L72V/L85M IgV-Fc (inert) (Fc fusion) | – | – | – | – | – | – | – | – | – | 606 RLU | Jurkat/IL2 reporter RLU at 50 nM, CHO/OKT3/PD-L1 aAPC (CD28 (human) [9]): 695 RLU; Jurkat/IL2 reporter RLU at 50 nM, CHO/OKT3/PD-L1 aAPC (PD-L1 (human) [10]): 695 RLU; IL-2 release, primary T cells + K562/OKT3/PD-L1, 100 nM (CD28 (human) [11]): 102; IL-2 release, primary T cells + K562/OKT3/PD-L1, 100 nM (PD-L1 (human) [12]): 102 |
| variant CD80 IgV-Fc H18Y/A26E/E35D/M47L/D90G (Fc fusion) | 2.37 fold | 2.37 fold | 31.4 fold | 1380 MFI | 14.5 fold | 19700 MFI | 291 fold | 12700 MFI | 9.2 | – | – |
| variant CD80 IgV-Fc H18Y/A26E/V68M/A71G/D90G (Fc fusion) | 2.5 fold | 2.5 fold | 61.1 fold | 2680 MFI | 13.5 fold | 18300 MFI | 639 fold | 27900 MFI | 10.4 | – | – |
| variant CD80 IgV-Fc H18Y/A26E/E35D/V68M/A71G/D90G (Fc fusion) | 2.41 fold | 2.41 fold | 40 fold | 1760 MFI | 17.2 fold | 23400 MFI | 658 fold | 28700 MFI | 16.3 | – | – |
| variant CD80 IgV-Fc H18Y/A26E/E35D/V68M/A71G (Fc fusion) | 2.46 fold | 2.46 fold | 9 fold | 394 MFI | 14.3 fold | 19400 MFI | 630 fold | 27500 MFI | 69.7 | – | – |
| variant CD80 IgV-Fc H18Y/A26E/E35D/A71G/D90G (Fc fusion) | 2.45 fold | 2.45 fold | 24.5 fold | 1080 MFI | -0.1 fold | -100 MFI | 340 fold | 14800 MFI | 13.8 | – | – |
| variant CD80 IgV-Fc H18Y/A26E/E35D/M47L/V68M (Fc fusion) | 2.29 fold | 2.29 fold | 14.3 fold | 626 MFI | 14.7 fold | 20000 MFI | 566 fold | 24700 MFI | 39.4 | – | – |
| variant CD80 IgV-Fc E35D/M47L/A71G/L97Q (Fc fusion) | – | – | – | – | – | – | – | – | – | – | MFI at 33.3 nM (human CTLA-4 (human) [7]): 226000 MFI; MFI at 33.3 nM (CD28 (human) [8]): 300 MFI |
| CD80 H18Y/A26T/E35D/A71D/L85Q IgV-Fc (inert) (Fc fusion) | – | – | – | – | – | – | – | – | – | 926 RLU | Jurkat/IL2 reporter RLU at 50 nM, CHO/OKT3/PD-L1 aAPC (CD28 (human) [9]): 1160 RLU; Jurkat/IL2 reporter RLU at 50 nM, CHO/OKT3/PD-L1 aAPC (PD-L1 (human) [10]): 1160 RLU |
| variant CD80 IgV-Fc A26E/E35D/V68M/A71G/D90G (Fc fusion) | 2.34 fold | 2.34 fold | 47.9 fold | 2100 MFI | 17.1 fold | 23300 MFI | 608 fold | 26500 MFI | 12.6 | – | – |
| CD80 E35G/K54E/A71D/L72P IgV-Fc (inert) (Fc fusion) | – | – | – | – | – | – | – | – | – | 440 RLU | Jurkat/IL2 reporter RLU at 50 nM, CHO/OKT3/PD-L1 aAPC (CD28 (human) [9]): 476 RLU; Jurkat/IL2 reporter RLU at 50 nM, CHO/OKT3/PD-L1 aAPC (PD-L1 (human) [10]): 476 RLU; IL-2 release, primary T cells + K562/OKT3/PD-L1, 100 nM (CD28 (human) [11]): 59; IL-2 release, primary T cells + K562/OKT3/PD-L1, 100 nM (PD-L1 (human) [12]): 59 |
| variant CD80 IgV-Fc S15P/Q33L/E35D/M47L/L85Q (Fc fusion) | – | – | – | – | – | – | – | – | – | – | MFI at 33.3 nM (CD28 (human) [8]): 266 MFI |
| CD80 E35D/M47L IgV-Fc (inert) (Fc fusion) | – | – | – | – | – | – | – | – | – | 817 RLU | IL-2 release, primary T cells + K562/OKT3/PD-L1, 100 nM (CD28 (human) [11]): 7530; IL-2 release, primary T cells + K562/OKT3/PD-L1, 100 nM (PD-L1 (human) [12]): 7530 |
| CD80 E35D/M47I/L70M IgV-Fc (inert) (Fc fusion) | – | – | – | – | – | – | – | – | – | 600 RLU | Jurkat/IL2 reporter RLU at 50 nM, CHO/OKT3/PD-L1 aAPC (CD28 (human) [9]): 2630 RLU; Jurkat/IL2 reporter RLU at 50 nM, CHO/OKT3/PD-L1 aAPC (PD-L1 (human) [10]): 2630 RLU; IL-2 release, primary T cells + K562/OKT3/PD-L1, 100 nM (CD28 (human) [11]): 8390; IL-2 release, primary T cells + K562/OKT3/PD-L1, 100 nM (PD-L1 (human) [12]): 8390 |
| CD80 E35D/M47I IgV-Fc (effector) (Fc fusion) | – | – | – | – | – | – | – | – | – | – | Jurkat/IL2 reporter RLU at 50 nM, K562/OKT3/PD-L1 aAPC (CD28 (human) [13]): 5700 RLU; Jurkat/IL2 reporter RLU at 50 nM, K562/OKT3 aAPC without PD-L1 (CD28 (human) [13]): 7140 RLU; Jurkat/IL2 reporter RLU at 50 nM, K562/OKT3/PD-L1 aAPC (PD-L1 (human) [14]): 5700 RLU; IL-2 release, primary T cells + K562/OKT3 (No PD-L1), 100 nM (CD28 (human) [11]): 27200 |
| variant CD80 IgV-Fc H18Y/A26E/E35D/M47L/V68M/D90G (Fc fusion) | 2.29 fold | 2.29 fold | 60.9 fold | 2680 MFI | 18.3 fold | 24900 MFI | 578 fold | 25200 MFI | 9.4 | – | – |
| CD80 H18Y/A26T/E35D/A71D/L85Q IgV-Fc (effector) (Fc fusion) | – | – | – | – | – | – | – | – | – | – | Jurkat/IL2 reporter RLU at 50 nM, K562/OKT3/PD-L1 aAPC (CD28 (human) [13]): 5220 RLU; Jurkat/IL2 reporter RLU at 50 nM, K562/OKT3 aAPC without PD-L1 (CD28 (human) [13]): 8750 RLU; Jurkat/IL2 reporter RLU at 50 nM, K562/OKT3/PD-L1 aAPC (PD-L1 (human) [14]): 5220 RLU; IL-2 release, primary T cells + K562/OKT3 (No PD-L1), 100 nM (CD28 (human) [11]): 20600 |
| variant CD80 IgV-Fc E35D/D46V/M47I/A71G/F92V (Fc fusion) | – | – | – | – | – | – | – | – | – | – | MFI at 33.3 nM (CD28 (human) [8]): 7540 MFI |
| CD80 E35D/M47I/L70M IgV-Fc (effector) (Fc fusion) | – | – | – | – | – | – | – | – | – | – | Jurkat/IL2 reporter RLU at 50 nM, K562/OKT3/PD-L1 aAPC (CD28 (human) [13]): 3870 RLU; Jurkat/IL2 reporter RLU at 50 nM, K562/OKT3 aAPC without PD-L1 (CD28 (human) [13]): 5780 RLU; Jurkat/IL2 reporter RLU at 50 nM, K562/OKT3/PD-L1 aAPC (PD-L1 (human) [14]): 3870 RLU; IL-2 release, primary T cells + K562/OKT3 (No PD-L1), 100 nM (CD28 (human) [11]): 25300 |
